This is an account of results in patent US20260097113A1 (Pfizer, published 2026).

In assay [1] the target is RSV A + RSV B bivalent composition (RSV subtype A; RSV subtype B). The assay is described as follows: AM14 Fab titration by SEC; composition of Table 14; Annealing Ramp Aggressive cycle. Background: SEC sorts molecules by how far they enter the pores of the column.
Assay [2] has the same target. The assay is described as follows: AM14 Fab titration by SEC; Low-Fast cycle; 3 M 2-8°C (second value).
The target is the same in assay [3]. Nature of the assay: AM14 Fab titration by SEC; Low-Fast cycle; 3 M 2-8°C.
Assay [4] concerns the target T1, RSV F protein of subtype A comprising a polypeptide of SEQ ID NO: 1 and a polypeptide of SEQ ID NO: 2 (RSV subtype A, UniProt P11209 137-513; P03420 26-109).
T1 construct: Stabilized prefusion F trimer made of three F2-F1 heterodimers; Produced recombinantly in CHO cells; also called RSV A; RSVA
T1 chain 1: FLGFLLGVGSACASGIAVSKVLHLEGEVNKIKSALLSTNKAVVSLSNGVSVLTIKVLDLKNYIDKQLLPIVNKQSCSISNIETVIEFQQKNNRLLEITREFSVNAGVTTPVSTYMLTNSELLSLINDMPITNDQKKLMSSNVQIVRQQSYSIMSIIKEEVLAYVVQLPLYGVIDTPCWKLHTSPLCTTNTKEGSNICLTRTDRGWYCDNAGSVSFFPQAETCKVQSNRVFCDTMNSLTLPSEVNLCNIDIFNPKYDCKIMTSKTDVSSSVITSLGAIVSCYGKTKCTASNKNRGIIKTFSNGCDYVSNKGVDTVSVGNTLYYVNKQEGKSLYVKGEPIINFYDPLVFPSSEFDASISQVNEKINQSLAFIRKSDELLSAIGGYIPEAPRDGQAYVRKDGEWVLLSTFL
T1 chain 2: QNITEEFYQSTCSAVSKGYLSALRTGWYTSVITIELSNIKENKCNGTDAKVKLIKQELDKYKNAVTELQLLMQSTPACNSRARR
Nature of the assay: AM14 ELISA; F6 (pH 7, 0 mM NaCl, 4.5% sucrose); 2 wk 5°C.

Consider AM14 Fab, for which the figures for the Prefusion Content (%) in assay [1], in assay [2] and in assay [3] were 81%, 59% and 56%, respectively.

B1: AM14 (trimeric prefusion specific antibody of the AM14 ELISA) (antibody, V domains shown)
VH: EVQLVESGGGVVQPGRSLRLSCAASGFSFSHYAMHWVRQAPGKGLEWVAVISYDGENTYYADSVKGRFSISRDNSKNTVSLQMNSLRPEDTALYYCARDRIVDDYYYYGMDVWGQGATVTVSS
VL: DIQMTQSPSSLSASVGDRVTITCQASQDIKKYLNWYHQKPGKVPELLMHDASNLETGVPSRFSGRGSGTDFTLTISSLQPEDIGTYYCQQYDNLPPLTFGGGTKVEIKR
notes: Antibody as used in the AM14 ELISA, detected with an HRP-labeled secondary antibody
Take B1: the “AM14 prefusion content (%), relative to standard” value in assay [4] came to 77%.
